# Measurements reported in patent publication EP2469278A1, “Reagentless fluorescent biosensors from nanofitins, rational design methods to create reagentless fluorescent biosensors and methods of their use” (Institut Pasteur, priority 2010, dated 2012).
# “And” between values parts separate entries of the source, which are not always exact repeats. Equal values may be shown once.
# Tests used:
# hen egg-white lysozyme [1] = target: T1, hen egg-white lysozyme (hen, UniProt P00698 19-147); test: fluorescence titration in solution, 0.3 µM conjugate, buffer C, 25 °C
# T1 construct: also called HEL
# hen egg-white lysozyme [2] = target: T1, hen egg-white lysozyme; test: from Kd in solution: fluorescence titration of conjugate against competition Biacore of H4S(wt)
# [3] = target: T2, hen egg-white lysozyme (HEL) (Gallus gallus, UniProt P00698); test: Titration of H4S conjugates with HEL, monitored by fluorescence; format: binding; details: for sr: relative sensitivity of the conjugate at a fixed concentration of 0.3 µM (Equation 8), buffer C
# T2 construct: hen egg-white lysozyme (HEL); purchased Sigma
# Method: (§1) The binding and fluorescence experiments were performed at equilibrium as if the preparations of conjugates were homogeneous, i. e. as if yc = 1. The binding reactions were conducted by incubating 0.3 µM of conjugate with variable concentrations of the HEL or BSA antigens in a volume of 1 mL, for 30 min in the dark with gentle shaking. The reactions were carried out in Buffer C or in a mixture v:(1-v) of calf serum and Buffer C as indicated in example 2.
# The conjugate (or biosensor) B and antigen A form a 1:1 complex B:A according to the reaction: B + A↔B:A [formula] At equilibrium, the concentration [B:A] of the complex is given by the equation: [B:A] = 0.5{[B]0+[A]0+Kd-(((([B]0+[A]0+Kd))^2-4[B]0[A]0))^(1/2)} [formula] where Kd is the dissociation constant, and [A]0 and [B]0 are the total concentrations of A and B, respectively (Renard et al., 2003).
# The fluorescence of the IANBD conjugates was excited at 485 nm (5 nm slit width) and its intensity measured between 520 and 550 nm (20 nm slit width) with a FP-6300 spectrofluorometer (Jasco). The signal of HEL alone or BSA alone was measured in an independent experiment and subtracted from the global signal of the binding mixture to give the specific fluorescence intensity F of each conjugate. The intensity F at a given value of [A]0 satisfies the following equation: (F-F0)/F0 = ΔF/F0 = (ΔF∞/F0)([B:A]/[B]0) [formula] where F0 and F∞ are the values of F at zero and saturating concentrations of A (Renard et al., 2003). The values of ΔF∞/F0, Kd, and [B]0 could be determined by fitting Equation 5, in which [B:A] is given by Equation 4, to the experimental values of ΔF/F0, measured in a titration experiment. The fittings were performed with the Kaleidagraph software (Synergy Software).
# The sensitivity s and relative sensitivity sr of a conjugate can be defined by the following equations for the low values of [A]0, i. e. in the initial part of the titration curve: ΔF = s[A]0 [formula] ΔF/F0 = sr [A]0 /[B]0 [formula] s and sr can be expressed as functions of characteristic parameters of the conjugate: sr = (ΔF∞/F0)([B]0/(Kd+[B]0)) [formula] s = fb sr [formula] where fb = F0/[B]0 is the molar fluorescence of the free conjugate (Renard and Bedouelle, 2004). Equation 8 implies that sr is maximal when the biosensor B is present at a concentration [B]0 >> Kd, as every newly titrated molecule A then forms a complex. Equation 6 implies that the lower limit of detection δ[A]0 of the conjugate is linked to the lower limit of measurement of the spectrofluorometer δF by the following equations: δ[A]0 = s^-1 δF = sr^-1 [B]0 (δF/F0) [formula]
# [4] = target: bovine serum albumin (BSA) (Bos taurus, UniProt P02769); test: Specificity: titration of H4S conjugates with heterologous antigen BSA, monitored by fluorescence; details: for ΔF∞/F0: BSA as antigen, buffer C, 0.3 µM conjugate; for relative sensitivities sr lower for BSA than for HEL: [B]0 = 0.3 µM
# [5] = target: T2, hen egg-white lysozyme (HEL); test: Selectivity: fluorescence signal of conjugate in mixtures of calf serum and buffer C; format: binding; details: 0.3 µM conjugate, 10 µM HEL
# Method: as §1
# The selectivity of a biosensor refers to the extent to which it can recognize a particular analyte in a complex mixture without interference from other components (Vessman et al., 2001). The selectivity of the H4S(K24ANBD) conjugate was characterized by comparing its fluorescence properties in serum and in buffer C. More specifically, the variations of the F0 and F10µM parameters were measured as functions of the concentration in serum (Figure 3). Given that Kd = 0.1 µM for H4S(K24ANBD), this conjugate was fully saturated with HEL at 10 µM. […] As expected, the absorbance of the serum alone increased linearly with its concentration, in agreement with the Beer-Lambert law, at both 485 nm and 536 nm, which were the wavelengths of fluorescence excitation and emission in our experiments. […] The same increase and decrease was observed when measuring the fluorescence of a conjugate between IANBD and 2-mercaptoethanol. […]
# hen egg-white lysozyme [6] = target: T1, hen egg-white lysozyme; test: Biacore kinetics, HEL immobilised; Kd' = koff/kon
# hen egg-white lysozyme [7] = target: T1, hen egg-white lysozyme; test: Biacore, HEL immobilised; Kd'' dissociation constant at steady state
# hen egg-white lysozyme [8] = target: T1, hen egg-white lysozyme; test: Biacore kinetics, HEL immobilised on CM5 chip, buffer E (reducing), 25 °C, 1:1 Langmuir model
# bovine serum albumin = target: T3, bovine serum albumin (bovine, UniProt P02769 25-607); test: fluorescence titration with BSA, 0.3 µM conjugate, buffer C
# T3 construct: Heterologous antigen used as specificity control; also called BSA
Molecule,Kd (hen egg-white lysozyme [1]) [nM],ΔF∞/F0 (maximal relative variation of fluorescence on HEL binding) (hen egg-white lysozyme [1]),ΔΔG (conjugate against H4S(wt)) (hen egg-white lysozyme [2]),Kd (hen egg-white lysozyme [6]) [nM],Kd (hen egg-white lysozyme [7]) [nM],koff (hen egg-white lysozyme [8]) [s⁻¹],kon (hen egg-white lysozyme [8]) [M⁻¹ s⁻¹],also measured
"H4S conjugate, IANBD fluorophore coupled at position Lys28 (designed binder, Cys at position 28 (H4S numbering) coupled to IANBD ester (ANBD)) MRGSHHHHHHGSVKVKFFWNGEEKEVDTSKIVWVKRAGCSVLFIYDDNGKNGYGDVTEKDAPKELLDMLARAEREKKLN",28,0.26,≤ 0.5 kcal/mol,–,–,–,–,–
"Ala26: H4S conjugate: residue Ala26 changed into cysteine and coupled with IANBD (SEQ ID NO: 62) (conjugate, IANBD fluorophore on Cys26) MRGSHHHHHHGSVKVKFFWNGEEKEVDTSKIVWVKRCGKSVLFIYDDNGKNGYGDVTEKDAPKELLDMLARAEREKKLN",–,–,–,–,–,–,–,sr ([3]; HEL): 4.66; ΔF∞/F0 [4]: 0.73 ± 0.04; relative sensitivities sr lower for BSA than for HEL [4]: 36 fold
"Lys24: H4S conjugate: residue Lys24 changed into cysteine and coupled with IANBD (SEQ ID NO: 61) (conjugate, IANBD fluorophore on Cys24) MRGSHHHHHHGSVKVKFFWNGEEKEVDTSKIVWVCRAGKSVLFIYDDNGKNGYGDVTEKDAPKELLDMLARAEREKKLN",–,–,–,–,–,–,–,"Kd ([3]; HEL, rounded value quoted in text, read-out: Kd): 100 nM; lower limit of detection δ[A]0 ([3]; [B]0 = 0.3 µM, δF/F0 = […] (Equation 10)): 0.35 nM; sr ([3]; HEL): 6.61; sr ([3]; HEL, listed as H4S(Lys24ANBD)): 6.6; (F10µM - F0)/F0 ([5]; in ≤ 50 % serum): ≥ 0.25; concentration of serum in which the conjugate could still operate ([5]; serum (v/v) in buffer C): ≤ 50%; ΔF∞/F0 [4]: 0.26± 0.01; relative sensitivities sr lower for BSA than for HEL [4]: 106 fold"
"H4S conjugate, IANBD fluorophore coupled at position Ser29 (designed binder, Cys at position 29 (H4S numbering) coupled to IANBD ester (ANBD)) MRGSHHHHHHGSVKVKFFWNGEEKEVDTSKIVWVKRAGKCVLFIYDDNGKNGYGDVTEKDAPKELLDMLARAEREKKLN",33,0.55,≤ 0.5 kcal/mol,–,–,–,–,–
"H4S cysteine mutant W8C (not conjugated) (designed binder, Free cysteine mutant, measured in reducing conditions) MRGSHHHHHHGSVKVKFFCNGEEKEVDTSKIVWVKRAGKSVLFIYDDNGKNGYGDVTEKDAPKELLDMLARAEREKKLN",–,–,–,68,66,0.03,450000,–
"H4S cysteine mutant A26C (not conjugated) (designed binder, Free cysteine mutant, measured in reducing conditions) MRGSHHHHHHGSVKVKFFWNGEEKEVDTSKIVWVKRCGKSVLFIYDDNGKNGYGDVTEKDAPKELLDMLARAEREKKLN",–,–,–,60,54,0.023,380000,–
"H4S conjugate, IANBD fluorophore coupled at position Tyr42 (designed binder, Cys at position 42 (H4S numbering) coupled to IANBD ester (ANBD)) MRGSHHHHHHGSVKVKFFWNGEEKEVDTSKIVWVKRAGKSVLFIYDDNGKNGCGDVTEKDAPKELLDMLARAEREKKLN",2480,6.6,≥ 1.5 kcal/mol,–,–,–,–,–
"H4S(A26ANBD) (designed binder, Cys at position 26 (H4S numbering) coupled to IANBD ester (ANBD), also called Ala26) MRGSHHHHHHGSVKVKFFWNGEEKEVDTSKIVWVKRCGKSVLFIYDDNGKNGYGDVTEKDAPKELLDMLARAEREKKLN",206,7.9,≥ 0.5 kcal/mol and ≤ 1.2 kcal/mol,–,–,–,–,Kd (bovine serum albumin): 1400 nM
"H4S cysteine mutant K39C (not conjugated) (designed binder, Free cysteine mutant, measured in reducing conditions) MRGSHHHHHHGSVKVKFFWNGEEKEVDTSKIVWVKRAGKSVLFIYDDNGCNGYGDVTEKDAPKELLDMLARAEREKKLN",–,–,–,38,24,0.012,310000,–
"H4S conjugate, IANBD fluorophore coupled at position Phe7 (designed binder, Cys at position 7 (H4S numbering) coupled to IANBD ester (ANBD)) MRGSHHHHHHGSVKVKFCWNGEEKEVDTSKIVWVKRAGKSVLFIYDDNGKNGYGDVTEKDAPKELLDMLARAEREKKLN",42,0.26,≤ 0.5 kcal/mol,–,–,–,–,–
"H4S conjugate, IANBD fluorophore coupled at position Thr46 (designed binder, Cys at position 46 (H4S numbering) coupled to IANBD ester (ANBD)) MRGSHHHHHHGSVKVKFFWNGEEKEVDTSKIVWVKRAGKSVLFIYDDNGKNGYGDVCEKDAPKELLDMLARAEREKKLN",100,0.36,≤ 0.5 kcal/mol,–,–,–,–,–
"H4S conjugate, IANBD fluorophore coupled at position Trp8 (designed binder, Cys at position 8 (H4S numbering) coupled to IANBD ester (ANBD)) MRGSHHHHHHGSVKVKFFCNGEEKEVDTSKIVWVKRAGKSVLFIYDDNGKNGYGDVTEKDAPKELLDMLARAEREKKLN",189,1.47,≥ 0.5 kcal/mol and ≤ 1.2 kcal/mol,–,–,–,–,–
"H4S(K24C) (not conjugated) (designed binder, Free cysteine mutant, measured in reducing conditions) MRGSHHHHHHGSVKVKFFWNGEEKEVDTSKIVWVCRAGKSVLFIYDDNGKNGYGDVTEKDAPKELLDMLARAEREKKLN",–,–,–,117,104,0.023,160000,–
"H4S conjugate, IANBD fluorophore coupled at position Val21 (designed binder, Cys at position 21 (H4S numbering) coupled to IANBD ester (ANBD)) MRGSHHHHHHGSVKVKFFWNGEEKEVDTSKICWVKRAGKSVLFIYDDNGKNGYGDVTEKDAPKELLDMLARAEREKKLN",296,6.3,≥ 0.5 kcal/mol and ≤ 1.2 kcal/mol,–,–,–,–,–
"H4S cysteine mutant V21C (not conjugated) (designed binder, Free cysteine mutant, measured in reducing conditions) MRGSHHHHHHGSVKVKFFWNGEEKEVDTSKICWVKRAGKSVLFIYDDNGKNGYGDVTEKDAPKELLDMLARAEREKKLN",–,–,–,332,389,0.011,40000,–
"H4S conjugate, IANBD fluorophore coupled at position Lys39 (designed binder, Cys at position 39 (H4S numbering) coupled to IANBD ester (ANBD)) MRGSHHHHHHGSVKVKFFWNGEEKEVDTSKIVWVKRAGKSVLFIYDDNGCNGYGDVTEKDAPKELLDMLARAEREKKLN",126,1.65,≥ 0.5 kcal/mol and ≤ 1.2 kcal/mol,–,–,–,–,–
